Our source for the Kd values is PMC5973702.

The target in the test is human voltage-gated K+ channel Kv1.3 with C-terminal FLAG/10Xhis tag, expressed in Tetrahymena thermophila (human) (UniProt P22001). In words: fluorescence polarisation. For orientation: Polarisation of emitted light reports the rotation of a fluorescent probe.
UniProt P22001, sequence (P22001 whole entry): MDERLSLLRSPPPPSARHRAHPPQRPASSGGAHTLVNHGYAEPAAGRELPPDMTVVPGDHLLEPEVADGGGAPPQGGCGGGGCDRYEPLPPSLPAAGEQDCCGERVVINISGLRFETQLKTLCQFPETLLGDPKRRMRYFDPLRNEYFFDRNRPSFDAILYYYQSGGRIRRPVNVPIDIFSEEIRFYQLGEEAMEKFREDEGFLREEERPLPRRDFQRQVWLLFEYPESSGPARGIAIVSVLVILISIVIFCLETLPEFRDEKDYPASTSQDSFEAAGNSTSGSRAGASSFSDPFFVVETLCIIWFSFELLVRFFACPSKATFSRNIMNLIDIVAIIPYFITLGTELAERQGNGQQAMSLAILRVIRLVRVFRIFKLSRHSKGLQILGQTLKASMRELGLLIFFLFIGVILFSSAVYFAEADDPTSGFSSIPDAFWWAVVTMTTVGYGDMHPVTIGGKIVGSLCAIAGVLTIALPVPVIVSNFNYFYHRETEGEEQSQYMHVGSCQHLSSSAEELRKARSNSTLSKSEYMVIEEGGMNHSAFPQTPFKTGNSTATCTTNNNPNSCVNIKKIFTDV

“FAM-ShK (Fluorescein 6-carbonyl-labelled Stichodactyla toxin) (peptide)”: the Kd came to 11.5 nM.

Broadly, the Kd is the constant that tells how readily two partners part at equilibrium. Low readings indicate tighter binding, high ones weaker binding.
